Results reported in FireProtDB (doi:10.1021/bi992119u).

Conditions: Pseudomonas putida; pH 7; 25 °C; Urea; CD; Sodium phosphate 25 mM; reversible: yes; whole UniProt chain shown

B1: Steroid Delta-isomerase wild type, P07445 (protein)
chain: MNLPTAQEVQGLMARYIELVDVGDIEAIVQMYADDATVEDPFGQPPIHGREQIAAFYRQGLGGGKVRACLTGPVRASHNGCGAMPFRVEMVWNGQPCALDVIDVMRFDEHGRIQTMQAYWSEVNLSVREPQ
- denaturant m value: 3.39 kcal/mol/M
- denaturant midpoint (higher = more stable): 5.22 M
- unfolding free energy: 24.3 kcal/mol
